Test [1] addresses T1, human carcinoembryonic antigen (CEA), membrane-bound on cells (human, UniProt P06731 35-685).
T1 construct: whole, on cells; also called CEACAM-5; CD66e
T1 sequence (looked up): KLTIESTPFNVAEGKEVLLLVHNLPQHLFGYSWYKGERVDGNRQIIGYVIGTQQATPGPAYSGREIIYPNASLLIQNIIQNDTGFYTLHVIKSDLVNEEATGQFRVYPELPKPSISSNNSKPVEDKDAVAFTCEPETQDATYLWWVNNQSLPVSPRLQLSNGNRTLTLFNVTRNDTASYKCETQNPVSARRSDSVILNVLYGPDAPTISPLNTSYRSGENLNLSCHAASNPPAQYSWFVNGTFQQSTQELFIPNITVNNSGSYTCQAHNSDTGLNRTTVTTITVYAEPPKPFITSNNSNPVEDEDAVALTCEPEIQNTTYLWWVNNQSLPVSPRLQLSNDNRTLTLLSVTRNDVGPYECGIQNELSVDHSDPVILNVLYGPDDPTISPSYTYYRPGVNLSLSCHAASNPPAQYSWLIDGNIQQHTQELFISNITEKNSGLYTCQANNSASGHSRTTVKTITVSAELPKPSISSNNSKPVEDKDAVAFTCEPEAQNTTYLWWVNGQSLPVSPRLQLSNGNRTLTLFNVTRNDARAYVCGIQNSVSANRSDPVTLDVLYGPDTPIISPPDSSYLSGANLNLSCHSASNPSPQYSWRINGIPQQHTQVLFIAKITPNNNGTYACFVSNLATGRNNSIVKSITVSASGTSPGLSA
As to the kind of experiment: FACS on MKN-45 cells. The method, then: CH1A1 includes the M69F/T71L double point mutation. The latter three variants have the entire frameworks 1, 2, or 3, respectively, replaced by the murine counterpart. […] In this assay, cell binding of the CH1A-based antibody variants to CEA-expressing MKN-45 cells was analyzed at various concentrations. The affinity-matured light chain 2F1 was identical for all antibodies tested except for the parental antibody where the original light chain CL1A was used. Mean fluorescence was determined by FACS analysis. […] The DLS assay was performed using 1 mg/ml of the antibodies in a buffer of 20 mM Histidine and 140 mM NaCl at pH 6.0. The assay was conducted starting at 25° C. with an incremental temperature increase of 0.05° C./min up to 70° C. All antibodies tested in this assay had 2F1 as the light chain

The target in test [2] is T2, huNABA-avi-his (hybrid protein N-A1-B3-A2: N and A1 domains of human BGP, B3 domain of human CEA, A2 domain … (human, biotinylated at the avi tag (in vivo, co-transfected biotin ligase))).
T2 construct: also called NABA-avi-his reagent; biotinylated NABA
T2 chain: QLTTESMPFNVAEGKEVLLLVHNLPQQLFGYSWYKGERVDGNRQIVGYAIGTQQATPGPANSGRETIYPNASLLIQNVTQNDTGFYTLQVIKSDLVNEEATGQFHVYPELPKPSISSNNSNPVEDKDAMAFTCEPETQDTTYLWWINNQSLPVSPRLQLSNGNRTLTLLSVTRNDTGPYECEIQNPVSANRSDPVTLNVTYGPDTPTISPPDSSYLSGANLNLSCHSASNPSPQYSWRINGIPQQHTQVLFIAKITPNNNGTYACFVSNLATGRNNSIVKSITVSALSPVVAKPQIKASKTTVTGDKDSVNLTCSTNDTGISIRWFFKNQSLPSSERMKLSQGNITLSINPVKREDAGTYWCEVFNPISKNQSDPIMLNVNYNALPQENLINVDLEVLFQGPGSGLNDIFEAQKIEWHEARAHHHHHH
As to the kind of experiment: Biacore, column Affinity, CDR-H1 and CDR-H2 rows; antigen not named on the sheet, NABA-avi-his per paragraph 230. For orientation: Surface plasmon resonance follows binding to a sensor surface in real time, without labels.

The target of test [3] is T2, huNABA-avi-his (hybrid protein …). As to the kind of experiment: Biacore, column Affinity, CDR-L1 and CDR-L2 rows (QNVGTN and PLI-YSASYRYS); antigen not named on the sheet, NABA-avi-his per paragraph 230.
For test [4] the target is unchanged. Nature of the test: Biacore, Fab on immobilized NABA-avi-his; column Monovalent Affinity.
The target is the same in test [5]. Nature of the test: Biacore SPR, Fab; antigen not named on the sheet, NABA-avi-his per paragraph 230.

B1: anti-CEA antibody with heavy chain CH1A4 and light chain 2F1 (antibody, V domains shown)
VH: QVQLVQSGAEVKKPGASVKVSCKASGYTFTEFGMNWVRQAPGQGLEWMGWINTKTGEATYVEEFKGRFAFSLETSATTAYLQINNLKNEDTAKYFCARWDFYDYVEAMDYWGQGTTVTVSS
VL: DIQMTQSPSSLSASVGDRVTITCKASAAVGTYVAWYQQKPGKAPKLLIYSASYRKRGVPSRFSGSGSGTDFTLTISSLQPEDFATYYCHQYYTYPLFTFGQGTKLEIKR
Broadly, the EC50 (read off the curve) is the concentration needed to bring the measured effect to its halfway point. High values mean weaker potency, low ones greater potency. With B1, in test [1], the “EC50 (read off the curve)” value was ~0.8 µg/mL.

B2: anti-CEA Fab with affinity matured heavy chain CH7A H4E9 and unmatured light chain CL1A (Fab, V domains shown)
VH: QVQLVQSGSELKKPGASVKVSCKASGYTFTEFGMNWVRQAPGQGLEWMGWINTKTGEATYIEEFKGRFVFSLDTSVSTAYLQISSLKAEDTAVYYCARWDFYDYVEAMDYWGQGTTVTVSS
VL: DIQMTQSPSSLSASVGDRVTITCKASQNVGTNVAWYQQKPGKAPKLLIYSASYRYSGVPSRFSGSGSGTDFTLTISSLQPEDFATYYCHQYYTYPLFTFGQGTKLEIK
notes: Fab format, bacterially expressed; also called CH7A H4E9 + CL1A
One may read the Kd as the free concentration of one partner at which half of the binding sites on the other are occupied at equilibrium, for simple one-to-one binding. Low readings indicate a tighter complex, high ones a looser complex. Usually koff stands for a measure of how fast the partners let go of each other. Read a low koff as a long-lived complex. One may read the kon as the second-order rate constant of association. A high value points to fast association. B2: the Kd in test [2] turned out to be 402 nM; in test [3], 402 nM; in test [4], 402 nM; in test [5] it was 518 nM. Also, the koff in test [4] amounted to 0.0021 s⁻¹. The kon in test [4] is 5220 M⁻¹ s⁻¹.

Source of the values: patent US20230365711A1 (Hoffmann-La Roche, published 2023).
